Reference: patent publication US20070280950A1 (MEDICAL AND BIOLOGICAL LABORATORIES, published 2007)

Experiments:
CD51 = molecular target: T1, CD51 (human, UniProt P06756 31-1048); experiment: flow cytometry, PBMCs double-stained with antibody #33 plus secondary antibody and PE-labeled CD51 antibody
T1 construct: whole, on cells; Co-precipitated with CD61 by antibody #33 from THP-1 cells; ruled out as the antigen by double staining of PBMCs; also called CD51 (112 kDa)
Method: A flow cytometry was performed to determine which of CD51 and CD61, listed as candidate antigen molecules for antibody #33, is the antigen for antibody #33. After PBMCs were stained with antibody #33 and a secondary antibody, they were reacted with a PE-labeled CD51 antibody (BC) or a PE-labeled CD61 antibody (SZ21, BC) at 4° C. for 30 minutes and double-stained, after which flow cytometry was performed.

human CD61 = molecular target: T2, human CD61 (human, UniProt P05106 27-788); experiment: flow cytometry on human cultured cells, 1 µg/ml antibody, FITC anti-mouse IgG secondary; Molt-4 and HUVEC also reactive; antigen later identified as CD61
T2 construct: whole, on cells; Endogenous protein on human cells; In the immunoprecipitation it was solubilised from biotinylated THP-1 cell surfaces with NP-40 and came down together with CD51; also called integrin β3-subunit; integrin β3 chain
Method: To identify the antigen of antibody #33, its reactivity to various human cultured cells was examined by flow cytometry. THP-1 activated macrophage-like cells, HPB-ALL, Jurkat, PM-1, Molt-4, KM-3, HL-60, K562, THP-1, U937, 293T, and HUVEC were used as these cells. The THP-1 activated macrophage-like cells were prepared by culturing and differentiating for two days the THP-1 human monocyte-like cell line in RPMI (Sigma) including Streptomycin/Penicillin (Gibco BRL) and 10% FCS (Equitech) into which phorbol ester (PMA) (Sigma) has been added to a final concentration of 5 ng/ml.
Blocking with 1 mg/ml human IgG (Sigma) in FCS was performed for the various human cultured cells (1.0×10⁵ cells) and cells were reacted in a PBS solution comprising 2% FCS (Equitech) antibody #33 at a final concentration of 1 μg/ml at 4° C. for 30 minutes. After washing twice with PBS comprising 2% FCS (Equitech), cells were further reacted with an FITC-labeled anti-mouse IgG secondary antibody (MBL) at 4° C. for 30 minutes. Samples were further washed twice with PBS containing 2% FCS (Equitech) and analyzed with a flow cytometer (ALTRA BC).

T2 sequence (P05106 27-788): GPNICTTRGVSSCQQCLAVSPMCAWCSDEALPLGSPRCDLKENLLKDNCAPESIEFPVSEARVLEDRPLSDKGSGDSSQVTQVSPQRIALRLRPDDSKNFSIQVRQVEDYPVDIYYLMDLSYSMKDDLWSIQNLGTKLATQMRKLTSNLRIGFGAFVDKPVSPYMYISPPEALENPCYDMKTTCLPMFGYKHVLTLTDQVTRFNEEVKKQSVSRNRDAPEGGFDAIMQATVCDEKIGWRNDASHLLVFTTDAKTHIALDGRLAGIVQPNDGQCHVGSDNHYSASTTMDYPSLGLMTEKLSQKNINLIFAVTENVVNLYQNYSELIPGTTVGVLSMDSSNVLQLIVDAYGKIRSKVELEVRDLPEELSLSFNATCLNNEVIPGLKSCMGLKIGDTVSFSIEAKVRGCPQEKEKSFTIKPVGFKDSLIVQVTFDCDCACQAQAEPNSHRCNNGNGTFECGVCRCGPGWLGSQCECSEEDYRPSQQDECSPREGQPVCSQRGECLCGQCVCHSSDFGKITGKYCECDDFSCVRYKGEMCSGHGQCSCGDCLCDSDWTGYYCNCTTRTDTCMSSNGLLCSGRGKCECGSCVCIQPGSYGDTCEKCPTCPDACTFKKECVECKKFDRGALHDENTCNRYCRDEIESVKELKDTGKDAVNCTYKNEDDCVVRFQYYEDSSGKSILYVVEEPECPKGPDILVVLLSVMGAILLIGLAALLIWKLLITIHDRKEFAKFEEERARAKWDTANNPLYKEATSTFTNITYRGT
T1 sequence (P06756 31-1048): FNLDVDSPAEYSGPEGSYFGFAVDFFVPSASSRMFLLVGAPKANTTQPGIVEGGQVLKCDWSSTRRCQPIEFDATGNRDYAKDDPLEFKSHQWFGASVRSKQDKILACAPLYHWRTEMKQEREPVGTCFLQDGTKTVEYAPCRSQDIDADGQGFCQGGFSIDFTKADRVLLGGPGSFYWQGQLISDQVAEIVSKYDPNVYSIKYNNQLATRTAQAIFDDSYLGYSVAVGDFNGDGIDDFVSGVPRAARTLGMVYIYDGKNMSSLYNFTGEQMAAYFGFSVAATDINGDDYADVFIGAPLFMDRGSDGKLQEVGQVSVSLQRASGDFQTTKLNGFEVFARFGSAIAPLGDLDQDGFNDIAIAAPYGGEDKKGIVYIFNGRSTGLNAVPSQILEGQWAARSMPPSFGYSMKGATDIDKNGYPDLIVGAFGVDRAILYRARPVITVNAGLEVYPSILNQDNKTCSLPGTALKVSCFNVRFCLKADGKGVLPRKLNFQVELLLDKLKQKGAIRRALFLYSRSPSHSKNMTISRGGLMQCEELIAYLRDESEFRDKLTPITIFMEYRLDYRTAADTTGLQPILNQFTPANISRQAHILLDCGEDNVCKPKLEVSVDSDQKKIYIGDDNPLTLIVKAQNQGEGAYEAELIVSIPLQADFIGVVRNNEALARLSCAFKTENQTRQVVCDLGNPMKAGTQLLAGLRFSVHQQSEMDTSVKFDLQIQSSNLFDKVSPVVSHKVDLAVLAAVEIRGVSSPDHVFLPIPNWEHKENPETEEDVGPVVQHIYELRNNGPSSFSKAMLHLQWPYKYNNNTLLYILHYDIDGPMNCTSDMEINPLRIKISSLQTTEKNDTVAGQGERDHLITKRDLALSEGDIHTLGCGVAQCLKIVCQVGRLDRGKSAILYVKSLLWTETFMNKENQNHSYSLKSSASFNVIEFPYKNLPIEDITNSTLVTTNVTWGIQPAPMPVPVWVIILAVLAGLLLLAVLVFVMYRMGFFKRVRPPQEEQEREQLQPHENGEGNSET

binding result (CD51): no binding | binding result (human CD61): binds
B1: antibody #33 (antibody, IgG2a, V domains shown)
VH: EVQLLQSGPELVKPGASMKISCKASGYSFTGYTMNWVKQSHGKNLEWIGLINPYSGVTTYNQRFKGKATLTVDKSSSTAYMELLSLTSEDSAVYYCATRGALGQAYYFDYWGQGTTLTVSS
VL: QIVLTQSPVIMSASPGERVTLTCSASSSVNYMHWYQQKSGTSPKRWIYDTSKLASGVPPRFSGSGFGTSYSLTITNMEAEDAATYYCQQWSSKPPTFGFGTKLELQR
notes: also called monoclonal antibody #33; mouse anti-human CD61 antibody
